The data set concerns the molecule itself. Briefly: crystal structure.

B1: MhuD (mycobacterial heme utilization, degrader), Rv3592, from Mycobacterium tuberculosis (enzyme)
chain: MPVVKINAIEVPAGAGPELEKRFAHRAHAVENSPGFLGFQLLRPVKGEERYFVVTHWESDEAFQAWANGPAIAAHAGHRANPVATGASLLEFEVVLDVGGTGKTA
Turning to B1, the binding result was “binds”.

Values taken from PMC2859679 (Journal of molecular biology, 2009).
